Measured values reported in publication PMC5228132.

Experiments:
[1] = biological target: FovPG1 (Fusarium oxysporum f. sp. vasinfectum polygalacturonase 1) (Fusarium oxysporum f. sp. vasinfectum)
[2] = biological target: VdPG1 (Verticillium dahliae polygalacturonase 1) (Verticillium dahliae)
[3] = biological target: VdPG1 (Verticillium dahliae polygalacturonase 1) (Verticillium dahliae); remark: listed apart in the source

For “GhPGIP1 (cotton polygalacturonase-inhibiting protein 1) (natural protein)”, the percent inhibition of PG activity by 3.24 nM GhPGIP1 over pH 7.0-10.0; 23.79% at pH 8.0 and 29.61% at pH 9.0 [1] was 29.6%, the percent inhibition of PG activity by 3.24 nM GhPGIP1 over pH 3.5-5.0; 26.88% at pH 4.2 and 31.45% at pH 4.8 [2] was 31.4% and the IC50 of inhibition; the text gives it for VdPG1, while the caption and footnote of Table 1 give it as antifungal activity on the growth of V. dahliae (eight doses of purified GhPGIP1) [3] was 44.4 µg/mL.
